# In patent publication US20260248877A1 (Universite de Rennes, priority 2021, published 2026):
# Entries after “also recorded” stand apart in the source; their conditions may differ.
# Key:
# [1] = test system: cells of the neuroblastoma line SH-SY5Y; assay: Growth of SH-SY5Y neuroblastoma cells (images); assay type: cell-based; conditions: 100 μM, 24 hours, 1×DMEM medium, 8% serum
# Method: The effects of three hexapeptides classified as “therapeutic” (1tp, 4tp, 6tp) and of two peptides classified as “amyloid” (7tp and 1p) on the growth of cells of the neuroblastoma line SH-SY5Y were studied after 24 hours of treatment in the presence of a hexapeptide at a concentration of 100 μM in 1×DMEM medium, 8% serum. The results obtained are presented on FIG. 10(A).
# [2] = Determination of the aggregative character of the peptides by sedimentation; assay type: physicochemical; conditions: sedimentation, Garnier-Delamarche representation
# Method: (§1) After thawing, a pre-dilution in milli Q H2O filtered through 0.2 μm was carried out in order to obtain a solution at a concentration close to the working concentration, greater than 1.25 times. This stock solution was left to incubate for 1 hour in a water bath at 25° C., and was then assayed spectrophotometrically and adjusted to the final working concentration of 1.25 times. The polymerization was initiated by adding ¼ of the volume of 5× fibrillation buffer (50 mM MOPS, 750 mM NaCl, pH=7.2) for a final concentration of 1× fibrillation buffer (10 mM MOPS, 150 mM NaCl, PH=7.2). The samples were left to incubate for 1.5-2 hours at 25° C. in a water bath. The study of the polymerization by fluorimetry was carried out under the same conditions, except that the 5× polymerization buffer was supplemented with Thioflavin T (ThT) at 100 μM in order to be able to observe the fluorescence. • (a) Determination of the Aggregative Character of the Peptides. Once polymerized, the samples were ultracentrifuged at 100,000 g for 5 minutes at 25° C. (Beckman TL100, rotor TL-A100). The supernatants of each sample were then collected. An assay at 280 nm in triplicate of each supernatant was then carried out in the presence of 1% SDS. The concentration of the supernatant was determined using the Beer-Lambert law A=ε×1×C; ε (peptides)=1450 M^−1cm^−1. The concentration of sedimentable species in the pellet was then deduced by the difference: “total concentration of the sample—concentration of free peptide present in the supernatant”. • (b) Determination of the Amyloidogenic Character of the Peptides. Once the peptides have polymerized as previously indicated, 40 μL of peptides polymerized at a concentration of 400 μM and 800 μM were diluted in 360 μL of Thioflavin T (10 μM ThT, 1×MOPS) in a thermostatically controlled tank of 0.2×1 cm, to a final volume of 400 μL. The fluorescence of the sample was then measured immediately after dilution by recording a fluorescence spectrum (470 nm to 600 nm) at an excitation wavelength of 450 nm (Perkin Elmer LS 55, PM 750, slit10).
# (§2) After prediction of their amyloidogenic character by bioinformatics, all the peptides were studied using biochemical techniques, namely sedimentation and fluorescence/ThT. The biochemical experiments were carried out at two peptide concentrations: 400 μM and 800 μM. Only the results obtained at 800 μM are presented. At this concentration, in sedimentation, the amount of sedimentable peptide after polymerization was measured and expressed as a percentage as a function of the total concentration. This value corresponds to the aggregative character of the peptides. On the other hand, the fluorescence test was used to determine their amyloidogenic character, the fluorescence value given corresponds to a normalization with respect to 1p, considering that its fluorescence is 100% (Table 4).
# [3] = Determination of the amyloidogenic character of the peptides by Thioflavin T fluorescence; assay type: physicochemical; conditions: ThT fluorescence, Garnier-Delamarche representation
# Method: as §1, §2
# [4] = Polymerization kinetics of selected peptide alone (ThT spectrofluorimetry); assay type: physicochemical; conditions: 310 μM, ThT fluorescence
# Method: After thawing, a pre-dilution of the peptides of interest in sterile water was carried out in order to obtain, for each peptide, a solution at a concentration close to the working concentration. The peptides were then left to incubate at 4° C. overnight. On the day of the experiment, the peptide solutions were sonicated for 10 minutes, left to stand for one hour at room temperature, sonicated again for 10 minutes and assayed spectrophotometrically at 280 nm (8=1450 M^−1cm^−1). The UV spectra were previously normalized to 0 at 300 nm. The solutions were prepared at concentrations of peptides ¼ above that desired in the end. The polymerization of VQIVYK was initiated by adding ¼ of the volume of fibrillation buffer 5× for a final concentration of fibrillation buffer 1× (10 mM MOPS, 150 mM NaCl, pH=7.2).
# The analyses were carried out on a spectrofluorometer (LS 55 from Perkin Elmer) fitted with a 4-cell rack. Black quartz cells (0.2×1.0 cm) were used. […]
# The results were first smoothed over 10 points with the “smooth” option of the KaleidaGraph software. […] Finally, the results of each kinetics were normalized relative to the fluorescence intensity of the 1p control after 100 minutes of polymerization considered to be 100%.
# [5] = biological target: T1, PHF6 peptide (VQIVYK, 1p) (Homo sapiens, UniProt P10636); assay: Effects of the derived peptides on VQIVYK polymerization by spectrofluorimetry (ThT kinetics); assay type: biochemical
# T1 construct: The polymerization of VQIVYK was initiated by adding ¼ of the volume of fibrillation buffer 5×
substance,measurement,setting,value
YQIVVK (Ac-YQIVVK-NH2) [6tp],effect on cell growth (number and appearance of cells),[1],did not seem to have any effect
same,aggregative character (in words),[2],weakly aggregative
same,amyloidogenic character (in words),[3],weakly amyloidogenic
same,polymerization of the peptide on its own,[4],do not polymerize on their own
same,category of polymerization kinetics of 1p in the presence of peptide,"[5]; [1p]=155 μM, [selected peptide]=310 μM",slow compared to 1p alone and which have a lower fluorescence intensity
same,inhibitory effect on 1p (PHF6) polymerization (in words),"[5]; [1p]=155 μM, [selected peptide]=310 μM, thresholds 50% rate, 100% fluorescence intensity",clearly inhibited; also recorded: marked inhibitory effect; also recorded: with a strong inhibitory effect
same,inhibitory effect over longer times,[5]; polymerization followed for 15 hours,the inhibitory effect persisted
